# B1: Tyrosine-protein phosphatase non-receptor type 12 (Mus musculus), P35831 (parent)
# chain: MEQVEILRRFIQRVQAMKSPDHNGEDNFARDFMRLRRLSTKYRTEKIYPTATGEKEENVKKNRYKDILPFDHSRVKLTLKTPSQDSDYINANFIKGVYGPKAYVATQGPLANTVIDFWRMIWEYNVVIIVMACREFEMGRKKCERYWPLYGEDPITFAPFKISCENEQARTDYFIRTLLLEFQNESRRLYQFHYVNWPDHDVPSSFDSILDMISLMRKYQEHEDVPICIHCSAGCGRTGAICAIDYTWNLLKAGKIPEEFNVFNLIQEMRTQRHSAVQTKEQYELVHRAIAQLFEKQLQLYEIHGAQKIADGNEITTGTMVSSIDSEKQDSPPPKPPRTRSCLVEGDAKEEILQPPEPHPVPPILTPSPPSAFPTVTTVWQDSDRYHPKPVLHMASPEQHPADLNRSYDKSADPMGKSESAIEHIDKKLERNLSFEIKKVPLQEGPKSFDGNTLLNRGHAIKIKSASSSVVDRTSKPQELSAGALKVDDVSQNSCADCSAAHSHRAAESSEESQSNSHTPPRPDCLPLDKKGHVTWSLHGPENATPVPDSPDGKSPDNHSQTLKTVSSTPNSTAEEEAHDLTEHHNSSPLLKAPLSFTNPLHSDDSDSDGGSSDGAVTRNKTSISTASATVSPASSAESACTRRVLPMSIARQEVAGTPHSGAEKDADVSEESPPPLPERTPESFVLADMPVRPEWHELPNQEWSEQRESEGLTTSGNEKHDAGGIHTEASADSPPAFSDKKDQITKSPAEVTDIGFGNRCGKPKGPREPPSEWT
# B2: Proline-serine-threonine phosphatase-interacting protein 1 (Mus musculus), P97814 (parent)
# chain: MMAQLQFRDAFWCRDFTAHTGYEVLLQRLLDGRKMCKDVEELLRQRAQAEERYGKELVQIARKAGGQTEMNSLRTSFDSLKQQTENVGSAHIQLALALREELRSLEEFRERQKEQRKKYEAIMDRVQKSKLSLYKKTMESKKAYDQKCRDADDAEQAFERVSANGHQKQVEKSQNKAKQCKESATEAERVYRQNIEQLERARTEWEQEHRTTCEAFQLQEFDRLTILRNALWVHCNQLSMQCVKDDELYEEVRLTLEGCDVEGDINGFIQSKSTGREPPAPVPYQNYYDREVTPLIGSPSIQPSCGVIKRFSGLLHGSPKTTPSAPAASTETLTPTPERNELVYASIEVQATQGNLNSSAQDYRALYDYTAQNSDELDISAGDILAVILEGEDGWWTVERNGQRGFVPGSYLEKL
# partner: B1 chain
# Variants of: B1
# Conditions: with ppip1_mouse Pstpip1, P97814
row,Variant,effect of a mutation on the interaction
1,C231S,decreasing interaction

# Variants of: B2
# Conditions: with ptn12_mouse Ptpn12, P35831
row,Variant,effect of a mutation on the interaction
1,Y344F,disrupting interaction

# — IntAct's records for PubMed 11711533
